For the assay, the target named is proteasome with HTBH-tagged 20S subunit PSMB2 (human (expressed in HEK293) | human (endogenous in HEK293T)) (UniProt P49721). In words: affinity purification with mass spectrometry.
Chain of UniProt P49721 (P49721 whole entry, looked up, tested part not stated): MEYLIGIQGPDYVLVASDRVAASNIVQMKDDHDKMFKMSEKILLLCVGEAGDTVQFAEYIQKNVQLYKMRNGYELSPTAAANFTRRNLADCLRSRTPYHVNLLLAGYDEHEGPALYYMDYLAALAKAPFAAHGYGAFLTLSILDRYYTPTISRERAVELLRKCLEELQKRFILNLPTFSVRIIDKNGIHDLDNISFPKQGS

B1: USP15 (endogenous, HEK293T or HeLa cells) (enzyme)
chain: MAEGGAADLDTQRSDIATLLKTSLRKGDTWYLVDSRWFKQWKKYVGFDSWDKYQMGDQNVYPGPIDNSGLLKDGDAQSLKEHLIDELDYILLPTEGWNKLVSWYTLMEGQEPIARKVVEQGMFVKHCKVEVYLTELKLCENGNMNNVVTRRFSKADTIDTIEKEIRKIFSIPDEKETRLWNKYMSNTFEPLNKPDSTIQDAGLYQGQVLVIEQKNEDGTWPRGPSTPKSPGASNFSTLPKISPSSLSNNYNNMNNRNVKNSNYCLPSYTAYKNYDYSEPGRNNEQPGLCGLSNLGNTCFMNSAIQCLSNTPPLTEYFLNDKYQEELNFDNPLGMRGEIAKSYAELIKQMWSGKFSYVTPRAFKTQVGRFAPQFSGYQQQDCQELLAFLLDGLHEDLNRIRKKPYIQLKDADGRPDKVVAEEAWENHLKRNDSIIVDIFHGLFKSTLVCPECAKISVTFDPFCYLTLPLPMKKERTLEVYLVRMDPLTKPMQYKVVVPKIGNILDLCTALSALSGIPADKMIVTDIYNHRFHRIFAMDENLSSIMERDDIYVFEININRTEDTEHVIIPVCLREKFRHSSYTHHTGSSLFGQPFLMAVPRNNTEDKLYNLLLLRMCRYVKISTETEETEGSLHCCKDQNINGNGPNGIHEEGSPSEMETDEPDDESSQDQELPSENENSQSEDSVGGDNDSENGLCTEDTCKGQLTGHKKRLFTFQFNNLGNTDINYIKDDTRHIRFDDRQLRLDERSFLALDWDPDLKKRYFDENAAEDFEKHESVEYKPPKKPFVKLKDCIELFTTKEKLGAEDPWYCPNCKEHQQATKKLDLWSLPPVLVVHLKRFSYSRYMRDKLDTLVDFPINDLDMSEFLINPNAGPCRYNLIAVSNHYGGMGGGHYTAFAKNKDDGKWYYFDDSSVSTASEDQIVSKAAYVLFYQRQDTFSGTGFFPLDRETKGASAATGIPLESDEDSNDNDNDIENENCMHTN
As to B1, the fold change of USP15 content on proteasomes, MG132-treated over untreated cells is > 4 fold.
